Measured values from patent publication US20250026859A1 (BEIGENE, published 2025).
Substitutions are numbered along the chain they refer to.

B1: 35D6 (antibody, V domains shown)
VH: QSVEESGGRLVTPGTPLTLTCTVSGFSLSSHWMSWVRQAPGKGLEWIGIISSSGSTDYVSWAKGRFTISKTSTTVDLKITSPTTEDTATYFCARDLGYSTNIWGPGTLVTVSL
VL: AYDMTQTPASVEVTVGGTVTIKCQASQSIGSYLAWYQQKPGQRPKLLIYDASTLASGVSSRFKGSGSGTQFTLTISGVECADAATYYCQQGYSSSGVDNAFGGGTEVVVK
notes: also called recombinant anti-DXd mAb 35D6
B2: 77G10 (antibody, V domains shown)
VH: QSLEESGGRLVTPGTPLTLTCTASGFSLSSYYMSWVRQAPGKGLEYIGIISSSGSTDYASWAKGRFTISKTSTTVDLKITSPTTEDTATYFCARGWLDLWGQGTLVTVSS
VL: AAVLTQTPSPVSAAVGGTVSISCQSSKSVYNNNWLSWLQQKPGQPPKLLIHGASTLASGVPSRFKGSGSGTQFTLTISDVQCDDAATYYCAGGYSSSTDNAFGGGTEVVVK
notes: also called recombinant anti-DXd mAb 77G10
B3: 29D2 (antibody, V domains shown)
VH: QSVEESGGRLVTPGTPLTLTCTASGFSLSSYAMNWVRQAPGKGLEYIGIIYDSGTTYYASWAKGRFTISKTSTTVDLKITSPTTEDTATYFCARAALDIWGPGTLVTVSS
VL: B2 VL with S25A, L38V, K41T, H51Y, S95G, T98S, K111E
notes: also called recombinant anti-DXd mAb 29D2
B4: 28C8 (antibody, V domains shown)
VH: B3 VH with A23V, T55S, S60N, A95G, A96Y
VL: B2 VL with N33K, H51Y, Q72E, S96I, T98S
notes: also called recombinant anti-DXd mAb 28C8
B5: 76G4 (antibody, V domains shown)
VH: QSVEESGGRLVTPGTPLTLTCTASGFSLSSYYMFWVRQAPGKGLEYIGYIGDGGYTSYATWAKGRFTISKTSSTTVDLKITSPTTEDTATYFCARDGFTSGSIWGPGTLVTVSS
VL: B2 VL with A13T, S20T, S28N, L38F, H51Y, A53T, T98S, A101G, G104A
notes: also called recombinant anti-DXd mAb 76G4

target: T1, DXd-conjugated antigen; experiment: competitive ELISA: coated DXd-conjugated antigen, antibody titrated with 1 ug/ml free biotin-DXd (small molecule) as competitor, streptavidin-HRP detection
T1 construct: also called DXd conjugated antigens

In order of falling IC50:
1. B1  5.24 ng/mL
2. B4  1.58 ng/mL
3. B3  1.26 ng/mL
4. B2  0.953 ng/mL
5. B5  0.753 ng/mL
